This note sets out measurements from US20160298120A1 (CHILDREN S HOSPITAL OF PHILADELPHIA, published 2016).

The target of assay [1] is T1, HAT1 (UniProt O14929 2-419, limits assumed).
T1 construct: Tested by co-immunoprecipitation with IRF1; no association
T1 sequence (looked up): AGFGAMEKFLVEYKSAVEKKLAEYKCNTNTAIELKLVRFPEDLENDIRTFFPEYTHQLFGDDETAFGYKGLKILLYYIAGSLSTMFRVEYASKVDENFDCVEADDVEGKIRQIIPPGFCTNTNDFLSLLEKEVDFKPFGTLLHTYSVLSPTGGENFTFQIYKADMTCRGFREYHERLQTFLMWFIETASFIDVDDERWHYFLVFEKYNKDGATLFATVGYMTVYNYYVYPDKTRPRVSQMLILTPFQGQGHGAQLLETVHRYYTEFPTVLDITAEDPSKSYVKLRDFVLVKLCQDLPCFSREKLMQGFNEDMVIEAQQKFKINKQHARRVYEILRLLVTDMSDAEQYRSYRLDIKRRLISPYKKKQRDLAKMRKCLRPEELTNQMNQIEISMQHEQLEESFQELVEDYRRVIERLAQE
In words: co-immunoprecipitation from cell lysates, blot probed with anti-IRF1.

Assay [2] deals with T2, ATF2 (UniProt P15336 1-505, limits assumed).
T2 construct: Tested by co-immunoprecipitation with IRF1; no association
T2 sequence (looked up): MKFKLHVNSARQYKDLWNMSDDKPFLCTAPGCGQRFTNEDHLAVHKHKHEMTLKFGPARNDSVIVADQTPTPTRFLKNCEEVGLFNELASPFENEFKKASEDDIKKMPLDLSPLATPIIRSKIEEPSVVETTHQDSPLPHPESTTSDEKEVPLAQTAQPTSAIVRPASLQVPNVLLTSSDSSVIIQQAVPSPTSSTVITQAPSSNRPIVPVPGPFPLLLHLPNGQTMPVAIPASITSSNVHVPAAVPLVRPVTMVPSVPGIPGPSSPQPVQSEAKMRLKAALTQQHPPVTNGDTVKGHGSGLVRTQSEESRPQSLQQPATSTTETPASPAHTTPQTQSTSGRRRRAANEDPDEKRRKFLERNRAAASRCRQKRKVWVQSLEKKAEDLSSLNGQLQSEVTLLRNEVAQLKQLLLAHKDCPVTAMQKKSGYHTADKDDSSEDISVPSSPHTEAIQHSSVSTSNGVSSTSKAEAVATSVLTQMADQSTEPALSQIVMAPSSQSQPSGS
Described as above.

B1: Interferon regulatory factor 1 (IRF1) (other, UniProt P10914 1-325, looked up)
chain: MPITRMRMRPWLEMQINSNQIPGLIWINKEEMIFQIPWKHAAKHGWDINKDACLFRSWAIHTGRYKAGEKEPDPKTWKANFRCAMNSLPDIEEVKDQSRNKGSSAVRVYRMLPPLTKNQRKERKSKSSRDAKSKAKRKSCGDSSPDTFSDGLSSSTLPDDHSSYTVPGYMQDLEVEQALTPALSPCAVSSTLPDWHIPVEVVPDSTSDLYNFQVSPMPSTSEATTDEDEEGKLPEDIMKLLEQSEWQPTNVDGKGYLLNEPGVQPTSVYGDFSCKEEPEIDSPGGDIGLSLQRVFTDLKNMDATWLDSLLTPVRLPSIQAIPCAP
notes: Endogenous protein from MonoMac6 lysates, detected with anti-IRF1 on the blot after co-immunoprecipitation
Turning to B1, the binding result in assay [1] and in assay [2] was “no binding” in each case.
